Legend:
Assay in all cases: cell-based or functional assay
Yes(h) (human) = Yes(h) (human) (UniProt P07947)
TAK1(h) (human) = target: T1, TAK1(h) (human) (UniProt O43318)
T1 sequence (looked up): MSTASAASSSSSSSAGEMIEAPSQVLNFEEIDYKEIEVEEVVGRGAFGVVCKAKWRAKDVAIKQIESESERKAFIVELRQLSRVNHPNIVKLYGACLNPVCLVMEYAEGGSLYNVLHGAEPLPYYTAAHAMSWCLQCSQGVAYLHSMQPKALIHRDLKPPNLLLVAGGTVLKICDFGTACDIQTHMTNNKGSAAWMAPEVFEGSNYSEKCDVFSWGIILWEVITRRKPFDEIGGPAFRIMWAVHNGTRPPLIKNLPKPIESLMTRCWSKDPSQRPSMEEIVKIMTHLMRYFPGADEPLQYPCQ

Fms(Y969C)(h) (human) = target: T2, Fms(Y969C)(h) (human) (UniProt P07333)
T2 sequence (looked up): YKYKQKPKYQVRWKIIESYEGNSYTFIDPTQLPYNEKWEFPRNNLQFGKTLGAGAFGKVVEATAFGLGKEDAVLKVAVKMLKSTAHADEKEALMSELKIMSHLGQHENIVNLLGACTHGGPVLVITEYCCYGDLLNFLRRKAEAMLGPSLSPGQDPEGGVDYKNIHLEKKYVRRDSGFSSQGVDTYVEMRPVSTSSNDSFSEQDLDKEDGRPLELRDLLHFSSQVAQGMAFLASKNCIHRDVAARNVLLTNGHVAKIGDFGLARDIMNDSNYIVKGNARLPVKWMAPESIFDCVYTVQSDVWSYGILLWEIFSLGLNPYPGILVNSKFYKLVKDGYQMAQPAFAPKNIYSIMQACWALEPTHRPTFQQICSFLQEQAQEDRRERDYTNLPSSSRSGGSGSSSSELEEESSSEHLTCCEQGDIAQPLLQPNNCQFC

JNK1α1(h) (human) = JNK1α1(h) (human) (UniProt P45983)
Lck(h) (human) = Lck(h) (human) (UniProt P06239)
Abl(M351T)(h) (human) = Abl(M351T)(h) (human) (UniProt P00519)
Fgr(h) (human) = Fgr(h) (human) (UniProt P09769)
CK1γ2(h) (human) = CK1γ2(h) (human) (UniProt P78368)
FGFR1(V561M)(h) (human) = FGFR1(V561M)(h) (human) (UniProt P11362)
PAK5(h) (human) = PAK5(h) (human) (UniProt Q9P286)
Aurora-A(h) (human) = target: T3, Aurora-A(h) (human) (UniProt O14965)
T3 sequence (looked up): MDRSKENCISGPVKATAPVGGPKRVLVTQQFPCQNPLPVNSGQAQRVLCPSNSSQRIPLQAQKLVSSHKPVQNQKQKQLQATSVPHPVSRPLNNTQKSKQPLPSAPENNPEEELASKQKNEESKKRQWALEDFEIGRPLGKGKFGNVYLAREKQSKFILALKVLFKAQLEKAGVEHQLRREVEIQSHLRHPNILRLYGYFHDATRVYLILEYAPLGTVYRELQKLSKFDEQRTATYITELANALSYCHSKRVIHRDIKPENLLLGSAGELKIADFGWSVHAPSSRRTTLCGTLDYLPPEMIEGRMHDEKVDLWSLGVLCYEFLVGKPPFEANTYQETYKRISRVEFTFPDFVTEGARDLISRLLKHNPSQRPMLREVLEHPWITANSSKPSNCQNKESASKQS

PAK3(h) (human) = PAK3(h) (human) (UniProt O75914)
CK1γ3(h) (human) = CK1γ3(h) (human) (UniProt Q9Y6M4)
CK2α2(h) (human) = CK2α2(h) (human) (UniProt P19784)
IGF-1R(h) (human) = IGF-1R(h) (human) (UniProt P08069)
MAPK1(h) (human) = MAPK1(h) (human) (UniProt P28482)
Snk(h) (human) = Snk(h) (human) (UniProt Q9NYY3)
Met(Y1248H)(h) (human) = Met(Y1248H)(h) (human) (UniProt P08581)
MRCKα(h) (human) = MRCKα(h) (human) (UniProt Q5VT25)
BTK(h) (human) = BTK(h) (human) (UniProt Q06187)
PDGFRα(D842V)(h) (human) = PDGFRα(D842V)(h) (human) (UniProt P16234)
cKit(V560G)(h) (human) = cKit(V560G)(h) (human) (UniProt P10721)
SRPK2(h) (human) = SRPK2(h) (human) (UniProt P78362)
Tie2(R849W)(h) (human) = Tie2(R849W)(h) (human) (UniProt Q02763)
GRK5(h) (human) = GRK5(h) (human) (UniProt P34947)
ACK1(h) (human) = ACK1(h) (human) (UniProt Q07912)
FGFR3(h) (human) = FGFR3(h) (human) (UniProt P22607)
EGFR(L858R)(h) (human) = EGFR(L858R)(h) (human) (UniProt P00533)
PKCη(h) (human) = PKCη(h) (human) (UniProt P24723)
TLK2(h) (human) = TLK2(h) (human) (UniProt Q86UE8)
FAK(h) (human) = FAK(h) (human) (UniProt Q05397)
PAK6(h) (human) = PAK6(h) (human) (UniProt Q9NQU5)
c-RAF(h) (human) = c-RAF(h) (human) (UniProt P04049)
PAR-1Bα(h) (human) = PAR-1Bα(h) (human) (UniProt Q7KZI7)

Sequence of PDGFRα(D842V)(h) (human) (P16234 550-1089 D842V limits assumed): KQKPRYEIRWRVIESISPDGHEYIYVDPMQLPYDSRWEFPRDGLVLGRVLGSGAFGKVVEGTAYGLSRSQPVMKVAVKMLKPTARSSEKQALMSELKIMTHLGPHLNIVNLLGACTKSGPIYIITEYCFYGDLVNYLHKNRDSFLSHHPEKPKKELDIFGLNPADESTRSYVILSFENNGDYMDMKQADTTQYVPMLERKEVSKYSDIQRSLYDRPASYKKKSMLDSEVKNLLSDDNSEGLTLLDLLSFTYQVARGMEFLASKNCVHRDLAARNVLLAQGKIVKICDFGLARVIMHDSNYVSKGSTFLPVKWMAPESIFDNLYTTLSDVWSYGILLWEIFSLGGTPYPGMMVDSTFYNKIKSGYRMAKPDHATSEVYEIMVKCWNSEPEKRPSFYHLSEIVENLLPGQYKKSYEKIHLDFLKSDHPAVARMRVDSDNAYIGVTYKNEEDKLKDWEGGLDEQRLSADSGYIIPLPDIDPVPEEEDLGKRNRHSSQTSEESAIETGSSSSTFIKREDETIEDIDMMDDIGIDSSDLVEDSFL
Sequence of FGFR3(h) (human) (P22607 448-759 limits assumed): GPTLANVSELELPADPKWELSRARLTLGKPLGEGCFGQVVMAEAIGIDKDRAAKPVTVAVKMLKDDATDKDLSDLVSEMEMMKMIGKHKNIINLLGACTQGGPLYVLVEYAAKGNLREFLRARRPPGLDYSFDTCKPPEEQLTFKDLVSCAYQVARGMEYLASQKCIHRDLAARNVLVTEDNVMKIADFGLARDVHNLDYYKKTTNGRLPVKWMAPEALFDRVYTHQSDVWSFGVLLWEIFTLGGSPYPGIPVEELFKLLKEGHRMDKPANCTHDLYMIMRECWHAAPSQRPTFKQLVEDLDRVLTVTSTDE
Sequence of FGFR1(V561M)(h) (human) (P11362 456-765 V561M limits assumed): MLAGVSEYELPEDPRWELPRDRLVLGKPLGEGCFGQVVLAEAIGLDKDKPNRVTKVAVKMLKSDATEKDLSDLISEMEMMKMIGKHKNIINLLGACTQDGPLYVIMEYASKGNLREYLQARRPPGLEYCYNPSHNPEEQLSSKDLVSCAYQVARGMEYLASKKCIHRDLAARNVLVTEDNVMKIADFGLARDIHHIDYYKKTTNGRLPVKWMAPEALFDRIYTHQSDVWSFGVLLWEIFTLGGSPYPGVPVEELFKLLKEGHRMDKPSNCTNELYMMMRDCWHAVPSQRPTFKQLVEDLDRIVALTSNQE
Sequence of cKit(V560G)(h) (human) (P10721 544-976 V560G): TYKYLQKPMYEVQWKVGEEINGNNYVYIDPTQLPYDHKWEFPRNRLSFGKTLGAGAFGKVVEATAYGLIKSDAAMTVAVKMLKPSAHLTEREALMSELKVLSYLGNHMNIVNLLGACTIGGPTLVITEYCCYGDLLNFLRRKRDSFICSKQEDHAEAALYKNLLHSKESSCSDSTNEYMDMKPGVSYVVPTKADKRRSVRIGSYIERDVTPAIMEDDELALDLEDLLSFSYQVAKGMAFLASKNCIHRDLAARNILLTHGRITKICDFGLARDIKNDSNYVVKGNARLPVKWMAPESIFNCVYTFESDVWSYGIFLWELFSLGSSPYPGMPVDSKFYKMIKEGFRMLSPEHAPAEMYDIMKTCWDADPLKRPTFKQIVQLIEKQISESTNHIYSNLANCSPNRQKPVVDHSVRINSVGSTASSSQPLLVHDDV
Sequence of Abl(M351T)(h) (human) (P00519 27-1130 M351T limits assumed): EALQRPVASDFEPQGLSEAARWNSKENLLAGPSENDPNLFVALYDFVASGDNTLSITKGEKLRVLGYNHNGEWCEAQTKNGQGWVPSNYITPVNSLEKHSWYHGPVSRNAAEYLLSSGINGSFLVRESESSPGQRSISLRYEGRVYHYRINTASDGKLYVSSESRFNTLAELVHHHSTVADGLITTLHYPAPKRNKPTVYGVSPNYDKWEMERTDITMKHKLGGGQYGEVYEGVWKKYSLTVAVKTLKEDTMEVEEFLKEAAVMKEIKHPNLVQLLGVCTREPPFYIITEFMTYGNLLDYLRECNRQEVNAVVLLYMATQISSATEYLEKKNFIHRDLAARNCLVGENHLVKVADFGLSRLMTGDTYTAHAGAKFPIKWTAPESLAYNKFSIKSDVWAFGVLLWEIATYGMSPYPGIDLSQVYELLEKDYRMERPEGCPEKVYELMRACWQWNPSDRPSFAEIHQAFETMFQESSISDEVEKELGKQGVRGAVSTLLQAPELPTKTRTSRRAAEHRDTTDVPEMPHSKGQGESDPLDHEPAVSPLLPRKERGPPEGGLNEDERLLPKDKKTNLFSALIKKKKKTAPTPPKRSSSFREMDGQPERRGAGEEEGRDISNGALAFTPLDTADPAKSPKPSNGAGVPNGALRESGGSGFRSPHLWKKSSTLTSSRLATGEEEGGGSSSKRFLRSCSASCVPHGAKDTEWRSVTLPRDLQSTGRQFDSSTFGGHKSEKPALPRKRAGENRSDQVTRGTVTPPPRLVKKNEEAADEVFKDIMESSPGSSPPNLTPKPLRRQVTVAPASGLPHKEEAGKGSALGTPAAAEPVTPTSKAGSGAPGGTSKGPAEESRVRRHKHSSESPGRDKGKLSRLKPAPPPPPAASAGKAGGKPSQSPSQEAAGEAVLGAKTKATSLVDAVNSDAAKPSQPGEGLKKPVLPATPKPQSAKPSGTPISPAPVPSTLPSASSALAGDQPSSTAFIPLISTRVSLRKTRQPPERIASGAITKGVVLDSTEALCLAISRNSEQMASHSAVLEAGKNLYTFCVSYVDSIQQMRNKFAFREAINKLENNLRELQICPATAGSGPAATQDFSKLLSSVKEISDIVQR
Sequence of PAK3(h) (human) (O75914 other isoform, or with tags, fused parts or gaps limits assumed): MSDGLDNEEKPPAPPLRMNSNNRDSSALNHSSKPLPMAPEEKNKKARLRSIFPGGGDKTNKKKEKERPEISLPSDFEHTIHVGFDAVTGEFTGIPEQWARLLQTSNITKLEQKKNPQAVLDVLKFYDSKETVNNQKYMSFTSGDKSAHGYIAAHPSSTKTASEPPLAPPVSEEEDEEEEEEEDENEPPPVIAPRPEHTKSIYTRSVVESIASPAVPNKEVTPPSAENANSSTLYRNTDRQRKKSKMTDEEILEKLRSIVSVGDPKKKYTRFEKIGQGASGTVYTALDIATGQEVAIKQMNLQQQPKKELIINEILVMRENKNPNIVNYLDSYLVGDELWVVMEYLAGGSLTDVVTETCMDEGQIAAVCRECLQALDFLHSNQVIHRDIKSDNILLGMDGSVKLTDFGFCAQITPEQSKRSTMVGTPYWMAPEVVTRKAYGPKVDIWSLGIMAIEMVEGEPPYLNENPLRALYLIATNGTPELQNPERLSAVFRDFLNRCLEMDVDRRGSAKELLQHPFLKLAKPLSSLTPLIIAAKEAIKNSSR
Sequence of IGF-1R(h) (human) (P08069 959-1367 limits assumed): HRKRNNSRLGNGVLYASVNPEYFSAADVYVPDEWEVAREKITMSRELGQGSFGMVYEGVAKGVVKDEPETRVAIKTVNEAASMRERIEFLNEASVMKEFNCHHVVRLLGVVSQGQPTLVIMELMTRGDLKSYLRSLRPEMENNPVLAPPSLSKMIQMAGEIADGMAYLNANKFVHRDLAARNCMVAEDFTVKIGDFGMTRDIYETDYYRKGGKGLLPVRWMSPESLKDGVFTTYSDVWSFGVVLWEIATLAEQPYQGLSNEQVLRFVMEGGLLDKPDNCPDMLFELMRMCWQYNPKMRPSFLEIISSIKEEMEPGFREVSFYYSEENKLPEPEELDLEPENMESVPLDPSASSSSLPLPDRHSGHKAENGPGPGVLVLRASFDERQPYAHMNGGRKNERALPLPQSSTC
Sequence of Tie2(R849W)(h) (human) (Q02763 771-1124 R849W limits assumed): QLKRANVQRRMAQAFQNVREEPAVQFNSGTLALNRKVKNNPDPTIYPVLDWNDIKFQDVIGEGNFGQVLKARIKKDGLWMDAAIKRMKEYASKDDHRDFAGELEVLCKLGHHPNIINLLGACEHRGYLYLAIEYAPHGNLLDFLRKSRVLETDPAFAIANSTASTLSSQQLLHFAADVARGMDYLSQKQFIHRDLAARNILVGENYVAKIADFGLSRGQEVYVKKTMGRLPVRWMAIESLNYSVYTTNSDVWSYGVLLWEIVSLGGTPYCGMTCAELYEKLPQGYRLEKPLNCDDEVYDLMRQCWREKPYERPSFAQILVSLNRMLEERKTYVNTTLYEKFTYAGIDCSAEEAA
Sequence of MAPK1(h) (human) (P28482 whole entry): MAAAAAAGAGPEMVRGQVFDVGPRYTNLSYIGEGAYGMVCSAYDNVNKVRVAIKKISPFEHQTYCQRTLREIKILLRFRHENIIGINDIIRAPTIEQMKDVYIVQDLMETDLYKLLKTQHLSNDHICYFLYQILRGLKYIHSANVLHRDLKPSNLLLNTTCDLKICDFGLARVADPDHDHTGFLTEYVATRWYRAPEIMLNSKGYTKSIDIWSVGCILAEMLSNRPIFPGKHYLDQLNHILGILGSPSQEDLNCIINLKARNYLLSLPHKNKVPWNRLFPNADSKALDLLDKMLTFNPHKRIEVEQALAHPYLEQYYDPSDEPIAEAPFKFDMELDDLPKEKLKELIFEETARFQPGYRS

| % activity at 100 µM (Yes(h) (human)) [%] | % activity at 100 µM (TAK1(h) (human)) [%] | % activity at 100 µM (Fms(Y969C)(h) (human)) [%] | % activity at 100 µM (JNK1α1(h) (human)) [%] | % activity at 100 µM (Lck(h) (human)) [%] | % activity at 100 µM (Abl(M351T)(h) (human)) [%] | % activity at 100 µM (Fgr(h) (human)) [%] | % activity at 100 µM (FGFR1(V561M)(h) (human)) [%] | % activity at 100 µM (PAK5(h) (human)) [%] | % activity at 100 µM (Aurora-A(h) (human)) [%] | % activity at 100 µM (Snk(h) (human)) [%] | % activity at 100 µM (Met(Y1248H)(h) (human)) [%] | % activity at 100 µM (MRCKα(h) (human)) [%] | % activity at 100 µM (BTK(h) (human)) [%] | % activity at 100 µM (PDGFRα(D842V)(h) (human)) [%] | % activity at 100 µM (cKit(V560G)(h) (human)) [%] | % activity at 100 µM (SRPK2(h) (human)) [%] | % activity at 100 µM (ACK1(h) (human)) [%] | % activity at 100 µM (FGFR3(h) (human)) [%] | % activity at 100 µM (EGFR(L858R)(h) (human)) [%] | Substance | further results |
| --- | --- | --- | --- | --- | --- | --- | --- | --- | --- | --- | --- | --- | --- | --- | --- | --- | --- | --- | --- | --- | --- |
| 67 | 122 | 72 | 97 | -2 | 90 | 60 | 74 | 110 | 92 |  |  |  |  |  |  |  |  |  |  | MMI-0300 (peptide) | % activity at 100 µM (CK1γ2(h) (human)): 123%; % activity at 100 µM (PAK3(h) (human)): 140%; % activity at 100 µM (CK1γ3(h) (human)): 125% |
| 14 | 177 | 91 | 98 |  |  | 47 | 74 |  |  | 131 | 63 | 97 | 94 | 118 | 124 | 97 | 95 | 0 | 52 | MMI-0400 (peptide) | % activity at 100 µM (CK2α2(h) (human)): 96%; % activity at 100 µM (IGF-1R(h) (human)): 90%; % activity at 100 µM (MAPK1(h) (human)): 100%; % activity at 100 µM (Tie2(R849W)(h) (human)): 108%; % activity at 100 µM (GRK5(h) (human)): 131%; % activity at 100 µM (PKCη(h) (human)): 98%; % activity at 100 µM (TLK2(h) (human)): 151%; % activity at 100 µM (FAK(h) (human)): 96%; % activity at 100 µM (PAK6(h) (human)): 100% |
|  |  |  |  | 359 | 61 |  |  | 125 | 110 | 122 | 126 | 5 | 18 | 170 | 198 | 80 | 64 | 10 | 26 | MMI-0500 (peptide) | % activity at 100 µM (c-RAF(h) (human)): 19%; % activity at 100 µM (PAR-1Bα(h) (human)): 97%; % activity at 100 µM (PKCη(h) (human)): 45%; % activity at 100 µM (TLK2(h) (human)): 133%; % activity at 100 µM (FAK(h) (human)): 94% |

— patent publication US20150064134A1
